Reference: PMC4134374

How the values were obtained:
[1] = biological target: TMR-labelled wt H4-tail peptide; assay: fluorescence polarisation
[2] = biological target: TMR-labelled 2RA H4-tail peptide; assay: fluorescence polarisation

| Kd [1] [nM] | Kd [2] [nM] | Substance |
| --- | --- | --- |
| 3 | 41 | wt Acf1 (accessory subunit of human ACF), isolated (from UniProt Q9NRL2 1-1556) (natural protein) |
| 2 | – | ΔC-term Acf1 (residues 1423-1556 deleted) (from UniProt Q9NRL2 1-1422) (domain or fragment) |
